Measured values published in US20130209489A1 (Amgen, published 2013).

Experiments:
promyostatin = promyostatin (UniProt O14793 24-375, limits assumed); test: KinExA solution equilibrium assay, promyostatin-coated beads
Excerpt: Solution-based equilibrium-binding assays using KinExA® technology (Sapidyne Instruments, Inc.) are employed to determine the dissociation equilibrium (Kd) of myostatin binding to antibody molecules. This solution-based assay is considered to be more sensitive than the BIAcore® assay in some instances. Reacti-Gel 6×(a highly reactive, cross-linked 6% agarose bead for immobilization of amine-containing ligands; Thermo Scientific Pierce, Rockford, Ill.) is pre-coated with about 50 microG/ml myostatin overnight, and then blocked with bovine serum albumin (BSA; 1 mg/ml). Antibody samples (10 pM, and 30 pM) were incubated with various concentrations (0.5 pM to 5 nM) of myostatin in sample buffer containing 0.1 mg.ml BSA at room temperature for eight hours before being run through the myostatin-coated beads. The amount of the bead-bound antibody is quantified by fluorescent (Cy5) labeled goat anti-human-Fc antibody at 1 mg/ml in SuperBlock® (an optimized protein-based solution for blocking excess binding sites; Thermo Scientific Pierce, Rockford, Ill.). The binding signal is proportional to the concentration of free antibody at equilibrium with a given myostatin concentration. […]
A KinExA™ assay similar to the one previously described was run, using promyostatin instead of mature myostatin. […] The amount of the bead-bound antibody is quantified substantially as previously described.

[1] = target: T1, Peptide I (reduced LysC peptide, 55-78) (human); test: BIAcore competition: 12A5-5 pre-incubated with the HPLC peptide fraction in solution, then passed over immobilized human myostatin
T1 construct: From TCEP reduction of peptide G
T1 peptide: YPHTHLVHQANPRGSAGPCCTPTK
Description: (§1) The strategy for characterizing the epitopes bound by anti-myostatin neutralizing monoclonal antibodies was to use various CNBr—, LysC— and chymotrypsin-generated human myostatin peptides and determine which peptides could be bound by the antibody. In one aspect, this was tested in a BIAcore® competition binding assay where the binding of 12A5-5 to human myostatin immobilized on a BIAcore® chip was determined in the presence or absence of each of the various isolated HPLC peptide fractions. In the absence of any competing peptides, 12A5-5 was able to bind the human myostatin on the chip and produce an RU (resonance unit) response. […] This general procedure was repeated individually for each peptide. […] These binding patterns, coupled with the known identity of the various myostatin peptides were used to determine which regions of myostatin were important (or necessary) for the binding of antibody 12A5-5.

[2] = target: T2, Peptide J (reduced LysC peptide, 98-109) (human); test: as above
T2 construct: From TCEP reduction of peptide G
T2 peptide: IPAMVVDRCGCS
Description: as §1

[3] = target: T3, Peptide H (reduced LysC peptide, 91-97) (human); test: as above
T3 peptide: EQIIYGK
Description: as §1

[4] = target: T4, Peptide B (CNBr peptide, 85-101) (human); test: as above
T4 construct: both are this molecule; also called Peptide D; Reduced CNBr peptide
T4 peptide: LYFNGKEQIIYGKIPAM
Description: as §1

[5] = target: T5, Peptide K (reduced LysC peptide, 40-54) (human); test: as above
T5 construct: From TCEP reduction of peptide G
T5 peptide: ANYCSGECEFVFLQK
Description: as §1

[6] = target: T6, Peptide F (LysC peptide, 79-90) (human); test: as above
T6 peptide: MSPINMLYFNGK
Description: as §1

[7] = target: T7, Peptide M (reduced LysC peptide, 1-36) (human); test: as above
T7 construct: From TCEP reduction of peptide G
T7 peptide: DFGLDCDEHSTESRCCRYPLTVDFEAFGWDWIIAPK
Description: as §1

[8] = target: T8, Peptide N (chymotryptic peptide, Cys knot, dimer) (human); test: as above
T8 chain 1: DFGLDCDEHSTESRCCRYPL
T8 chain 2: KANYCSGECEFVF
T8 chain 3: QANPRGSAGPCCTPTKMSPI
T8 chain 4: GKIPAMVVDRCGCS
Description: as §1

mature human myostatin [9] = target: T9, mature human myostatin (human, UniProt O14793 267-375); test: cell-based or functional assay
mature human myostatin [10] = target: T9, mature human myostatin; test: ratio of the affinities for GDF11 and myostatin
[11] = target: T10, Peptide P (chymotryptic peptide, antibody-protected Cys knot, dimer) (human); test: BIAcore competition: 12A5-5 pre-incubated with the HPLC peptide fraction in solution, then passed over immobilized human myostatin; low response means the peptide binds the antibody
T10 construct: Formed when myostatin pre-incubated with 12A5-5 was digested with chymotrypsin
T10 chain 1: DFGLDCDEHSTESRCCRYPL
T10 chain 2: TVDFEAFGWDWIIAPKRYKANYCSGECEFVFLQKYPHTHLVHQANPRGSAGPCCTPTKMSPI
T10 chain 3: GKIPAMVVDRCGCS
Description: as §1

[12] = target: T11, Peptide G (LysC peptide, Cys knot, dimer) (human); test: as above
T11 construct: Four LysC peptides held together by disulfide bonds (cystine knot), dimeric through Cys73 (19.5 kD)
T11 chain 1: T7 peptide
T11 chain 2: ANYCSGECEFVFLQK
T11 chain 3: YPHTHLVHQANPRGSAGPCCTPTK
T11 chain 4: IPAMVVDRCGCS
Description: as §1

mature human myostatin [13] = target: T9, mature human myostatin; test: KinExA solution equilibrium assay, myostatin-coated beads
Excerpt: Solution-based equilibrium-binding assays using KinExA® technology (Sapidyne Instruments, Inc.) are employed to determine the dissociation equilibrium (Kd) of myostatin binding to antibody molecules. This solution-based assay is considered to be more sensitive than the BIAcore® assay in some instances. Reacti-Gel 6×(a highly reactive, cross-linked 6% agarose bead for immobilization of amine-containing ligands; Thermo Scientific Pierce, Rockford, Ill.) is pre-coated with about 50 microG/ml myostatin overnight, and then blocked with bovine serum albumin (BSA; 1 mg/ml). Antibody samples (10 pM, and 30 pM) were incubated with various concentrations (0.5 pM to 5 nM) of myostatin in sample buffer containing 0.1 mg.ml BSA at room temperature for eight hours before being run through the myostatin-coated beads. The amount of the bead-bound antibody is quantified by fluorescent (Cy5) labeled goat anti-human-Fc antibody at 1 mg/ml in SuperBlock® (an optimized protein-based solution for blocking excess binding sites; Thermo Scientific Pierce, Rockford, Ill.). The binding signal is proportional to the concentration of free antibody at equilibrium with a given myostatin concentration. Kd is obtained from the nonlinear regression of the competition curves using a dual-curve one-site homogeneous binding model provided in the KinExA™ software (Sapidyne Instruments, Inc.).

mature human myostatin [14] = target: T9, mature human myostatin; test: cell-based or functional assay; remark: listed apart in the source

Kd (promyostatin): ~2 pM
Cell Assay (IC50), inhibition of myostatin activity (mature human myostatin [9]): 1.2 nM
fold selectivity for myostatin over GDF11 (mature human myostatin [10]): ~10000 fold
binding result [11]: binds
binding result [12]: binds
Kd (mature human myostatin [13]): ~2 pM
IC50 (nM), C2C12/pMARE luciferase reporter cell myostatin activity assay (mature human myostatin [14]): 1.85 nM
B1: anti-myostatin neutralizing monoclonal antibody 12A5-5 (antibody, V domains shown)
VH: EVQLVESGGGLVQPGGSLRLSCAASGFTFSRYWMNWVRQAPGKGLEWVAQIRLKSDNYATHYAESVKGRFTISRDNAKNSLYLQMNSLRAEDTAVYYCTEGLDYWGQGTTVTVSS
VL: DIQMTQSPSSLSASVGDRVTITCKASQDINKYVAWYQQKPGKAPKLLIYYTSWLQPGVPSRFSGSGSGTDFTFTISSLQPEDIATYYCLQYDNLLYTFGQGTKLEIK
notes: in the KinExA assay it was detected with a goat anti-human-Fc antibody, so it carries a human Fc; also called Mab 12A5-5; MAb 12A5-5
binding result [1]: no binding (tested: peptide concentration not printed)
binding result [2]: no binding (tested: peptide concentration not printed)
binding result [3]: no binding (tested: peptide concentration not printed)
binding result [4]: no binding (tested: peptide concentration not printed)
binding result [5]: no binding (tested: peptide concentration not printed)
binding result [6]: no binding (tested: peptide concentration not printed)
binding result [7]: no binding (tested: peptide concentration not printed)
binding result [8]: no binding (tested: peptide concentration not printed)
